Data published in patent US12715927.

Tests used:
[1] = molecular target: extracellular domain of human LEPR with an N-terminal myc-myc tag, GPI-anchored on HEK293 cells (human) (UniProt P48357); assay: FACS, secondary alone, HEK293/hLEPR-GPI, no added Leptin
[2] = molecular target: extracellular domain of human LEPR with an N-terminal myc-myc tag, GPI-anchored on HEK293 cells (human) (UniProt P48357); assay: FACS, secondary alone, HEK293/hLEPR-GPI, with 1 µM Leptin

Sequence of extracellular domain of human LEPR with an N-terminal myc-myc tag, GPI-anchored on HEK293 cells (human) (P48357 22-839 limits assumed): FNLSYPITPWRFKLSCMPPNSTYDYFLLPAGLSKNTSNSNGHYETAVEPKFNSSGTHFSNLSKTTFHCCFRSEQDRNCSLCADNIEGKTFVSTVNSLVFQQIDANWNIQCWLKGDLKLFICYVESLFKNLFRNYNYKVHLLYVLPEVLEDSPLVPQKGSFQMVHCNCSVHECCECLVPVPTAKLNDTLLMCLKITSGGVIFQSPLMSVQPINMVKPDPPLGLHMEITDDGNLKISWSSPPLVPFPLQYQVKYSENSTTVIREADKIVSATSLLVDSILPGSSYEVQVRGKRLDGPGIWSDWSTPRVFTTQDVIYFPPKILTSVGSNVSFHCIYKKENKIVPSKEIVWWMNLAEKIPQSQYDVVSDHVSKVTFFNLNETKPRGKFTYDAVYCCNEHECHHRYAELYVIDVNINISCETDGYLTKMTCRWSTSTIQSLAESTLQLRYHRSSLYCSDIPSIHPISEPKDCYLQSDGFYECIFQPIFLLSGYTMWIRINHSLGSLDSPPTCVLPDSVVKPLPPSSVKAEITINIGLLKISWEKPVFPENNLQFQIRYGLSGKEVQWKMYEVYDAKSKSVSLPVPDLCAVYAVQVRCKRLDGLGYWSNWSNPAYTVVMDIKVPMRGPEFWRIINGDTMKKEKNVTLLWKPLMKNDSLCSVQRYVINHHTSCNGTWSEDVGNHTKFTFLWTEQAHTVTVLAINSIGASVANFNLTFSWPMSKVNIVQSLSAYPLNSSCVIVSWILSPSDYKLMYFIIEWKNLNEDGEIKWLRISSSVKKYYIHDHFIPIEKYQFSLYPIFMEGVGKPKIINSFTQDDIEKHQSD

| Binding Ratio [1] | Binding Ratio [2] | Substance |
| --- | --- | --- |
| 2 fold | 2 fold | Anti-mouse IgG secondary antibody alone |
| 3 fold | 3 fold | Anti-human IgG secondary antibody alone |
